3 molecules from PMC10281526, “Polydom/SVEP1 binds to Tie1 and promotes migration of lymphatic endothelial cells” (The Journal of Cell Biology, 2023) can be followed below.

Test [1] concerns the target recombinant Tie1 extracellular domain, Fc fusion protein (UniProt P35590).
Test [2] concerns the target T1, recombinant full-length mouse Polydom (mouse, UniProt A2AVA0 18-3567).
T1 construct: Polydom (SVEP1), mouse, full length; expression vector as in Sato-Nishiuchi et al., 2012; The construct is described in Sato-Nishiuchi et al., 2012; also called SVEP1; full-length Polydom
Nature of the test: ELISA; reverse solid-phase binding assay, titration: full-length Polydom coated (10 nM by the legend), serially diluted Tie1-Fc or Tie2-Fc in solution, detected with HRP anti-human IgG against the Fc tag; apparent dissociation constant. To be noted: both partners purified.

The next test has as its target T2, Tie2 (Homo sapiens (Human), UniProt Q02763).
T2 chain: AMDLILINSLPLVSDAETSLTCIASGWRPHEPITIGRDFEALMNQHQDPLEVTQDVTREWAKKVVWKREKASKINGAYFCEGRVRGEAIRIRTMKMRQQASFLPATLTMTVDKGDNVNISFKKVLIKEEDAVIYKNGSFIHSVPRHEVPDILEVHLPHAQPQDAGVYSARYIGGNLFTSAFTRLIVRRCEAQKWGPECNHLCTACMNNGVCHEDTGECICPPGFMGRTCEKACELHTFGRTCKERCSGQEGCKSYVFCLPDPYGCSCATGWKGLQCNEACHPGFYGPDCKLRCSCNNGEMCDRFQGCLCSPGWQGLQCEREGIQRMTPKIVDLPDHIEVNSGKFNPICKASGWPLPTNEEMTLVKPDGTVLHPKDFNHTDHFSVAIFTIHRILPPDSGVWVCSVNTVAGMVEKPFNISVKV
Nature of the test: solid-phase ELISA, Tie-Fc dimers on coated SVEP1.

T1 sequence (A2AVA0 18-3567): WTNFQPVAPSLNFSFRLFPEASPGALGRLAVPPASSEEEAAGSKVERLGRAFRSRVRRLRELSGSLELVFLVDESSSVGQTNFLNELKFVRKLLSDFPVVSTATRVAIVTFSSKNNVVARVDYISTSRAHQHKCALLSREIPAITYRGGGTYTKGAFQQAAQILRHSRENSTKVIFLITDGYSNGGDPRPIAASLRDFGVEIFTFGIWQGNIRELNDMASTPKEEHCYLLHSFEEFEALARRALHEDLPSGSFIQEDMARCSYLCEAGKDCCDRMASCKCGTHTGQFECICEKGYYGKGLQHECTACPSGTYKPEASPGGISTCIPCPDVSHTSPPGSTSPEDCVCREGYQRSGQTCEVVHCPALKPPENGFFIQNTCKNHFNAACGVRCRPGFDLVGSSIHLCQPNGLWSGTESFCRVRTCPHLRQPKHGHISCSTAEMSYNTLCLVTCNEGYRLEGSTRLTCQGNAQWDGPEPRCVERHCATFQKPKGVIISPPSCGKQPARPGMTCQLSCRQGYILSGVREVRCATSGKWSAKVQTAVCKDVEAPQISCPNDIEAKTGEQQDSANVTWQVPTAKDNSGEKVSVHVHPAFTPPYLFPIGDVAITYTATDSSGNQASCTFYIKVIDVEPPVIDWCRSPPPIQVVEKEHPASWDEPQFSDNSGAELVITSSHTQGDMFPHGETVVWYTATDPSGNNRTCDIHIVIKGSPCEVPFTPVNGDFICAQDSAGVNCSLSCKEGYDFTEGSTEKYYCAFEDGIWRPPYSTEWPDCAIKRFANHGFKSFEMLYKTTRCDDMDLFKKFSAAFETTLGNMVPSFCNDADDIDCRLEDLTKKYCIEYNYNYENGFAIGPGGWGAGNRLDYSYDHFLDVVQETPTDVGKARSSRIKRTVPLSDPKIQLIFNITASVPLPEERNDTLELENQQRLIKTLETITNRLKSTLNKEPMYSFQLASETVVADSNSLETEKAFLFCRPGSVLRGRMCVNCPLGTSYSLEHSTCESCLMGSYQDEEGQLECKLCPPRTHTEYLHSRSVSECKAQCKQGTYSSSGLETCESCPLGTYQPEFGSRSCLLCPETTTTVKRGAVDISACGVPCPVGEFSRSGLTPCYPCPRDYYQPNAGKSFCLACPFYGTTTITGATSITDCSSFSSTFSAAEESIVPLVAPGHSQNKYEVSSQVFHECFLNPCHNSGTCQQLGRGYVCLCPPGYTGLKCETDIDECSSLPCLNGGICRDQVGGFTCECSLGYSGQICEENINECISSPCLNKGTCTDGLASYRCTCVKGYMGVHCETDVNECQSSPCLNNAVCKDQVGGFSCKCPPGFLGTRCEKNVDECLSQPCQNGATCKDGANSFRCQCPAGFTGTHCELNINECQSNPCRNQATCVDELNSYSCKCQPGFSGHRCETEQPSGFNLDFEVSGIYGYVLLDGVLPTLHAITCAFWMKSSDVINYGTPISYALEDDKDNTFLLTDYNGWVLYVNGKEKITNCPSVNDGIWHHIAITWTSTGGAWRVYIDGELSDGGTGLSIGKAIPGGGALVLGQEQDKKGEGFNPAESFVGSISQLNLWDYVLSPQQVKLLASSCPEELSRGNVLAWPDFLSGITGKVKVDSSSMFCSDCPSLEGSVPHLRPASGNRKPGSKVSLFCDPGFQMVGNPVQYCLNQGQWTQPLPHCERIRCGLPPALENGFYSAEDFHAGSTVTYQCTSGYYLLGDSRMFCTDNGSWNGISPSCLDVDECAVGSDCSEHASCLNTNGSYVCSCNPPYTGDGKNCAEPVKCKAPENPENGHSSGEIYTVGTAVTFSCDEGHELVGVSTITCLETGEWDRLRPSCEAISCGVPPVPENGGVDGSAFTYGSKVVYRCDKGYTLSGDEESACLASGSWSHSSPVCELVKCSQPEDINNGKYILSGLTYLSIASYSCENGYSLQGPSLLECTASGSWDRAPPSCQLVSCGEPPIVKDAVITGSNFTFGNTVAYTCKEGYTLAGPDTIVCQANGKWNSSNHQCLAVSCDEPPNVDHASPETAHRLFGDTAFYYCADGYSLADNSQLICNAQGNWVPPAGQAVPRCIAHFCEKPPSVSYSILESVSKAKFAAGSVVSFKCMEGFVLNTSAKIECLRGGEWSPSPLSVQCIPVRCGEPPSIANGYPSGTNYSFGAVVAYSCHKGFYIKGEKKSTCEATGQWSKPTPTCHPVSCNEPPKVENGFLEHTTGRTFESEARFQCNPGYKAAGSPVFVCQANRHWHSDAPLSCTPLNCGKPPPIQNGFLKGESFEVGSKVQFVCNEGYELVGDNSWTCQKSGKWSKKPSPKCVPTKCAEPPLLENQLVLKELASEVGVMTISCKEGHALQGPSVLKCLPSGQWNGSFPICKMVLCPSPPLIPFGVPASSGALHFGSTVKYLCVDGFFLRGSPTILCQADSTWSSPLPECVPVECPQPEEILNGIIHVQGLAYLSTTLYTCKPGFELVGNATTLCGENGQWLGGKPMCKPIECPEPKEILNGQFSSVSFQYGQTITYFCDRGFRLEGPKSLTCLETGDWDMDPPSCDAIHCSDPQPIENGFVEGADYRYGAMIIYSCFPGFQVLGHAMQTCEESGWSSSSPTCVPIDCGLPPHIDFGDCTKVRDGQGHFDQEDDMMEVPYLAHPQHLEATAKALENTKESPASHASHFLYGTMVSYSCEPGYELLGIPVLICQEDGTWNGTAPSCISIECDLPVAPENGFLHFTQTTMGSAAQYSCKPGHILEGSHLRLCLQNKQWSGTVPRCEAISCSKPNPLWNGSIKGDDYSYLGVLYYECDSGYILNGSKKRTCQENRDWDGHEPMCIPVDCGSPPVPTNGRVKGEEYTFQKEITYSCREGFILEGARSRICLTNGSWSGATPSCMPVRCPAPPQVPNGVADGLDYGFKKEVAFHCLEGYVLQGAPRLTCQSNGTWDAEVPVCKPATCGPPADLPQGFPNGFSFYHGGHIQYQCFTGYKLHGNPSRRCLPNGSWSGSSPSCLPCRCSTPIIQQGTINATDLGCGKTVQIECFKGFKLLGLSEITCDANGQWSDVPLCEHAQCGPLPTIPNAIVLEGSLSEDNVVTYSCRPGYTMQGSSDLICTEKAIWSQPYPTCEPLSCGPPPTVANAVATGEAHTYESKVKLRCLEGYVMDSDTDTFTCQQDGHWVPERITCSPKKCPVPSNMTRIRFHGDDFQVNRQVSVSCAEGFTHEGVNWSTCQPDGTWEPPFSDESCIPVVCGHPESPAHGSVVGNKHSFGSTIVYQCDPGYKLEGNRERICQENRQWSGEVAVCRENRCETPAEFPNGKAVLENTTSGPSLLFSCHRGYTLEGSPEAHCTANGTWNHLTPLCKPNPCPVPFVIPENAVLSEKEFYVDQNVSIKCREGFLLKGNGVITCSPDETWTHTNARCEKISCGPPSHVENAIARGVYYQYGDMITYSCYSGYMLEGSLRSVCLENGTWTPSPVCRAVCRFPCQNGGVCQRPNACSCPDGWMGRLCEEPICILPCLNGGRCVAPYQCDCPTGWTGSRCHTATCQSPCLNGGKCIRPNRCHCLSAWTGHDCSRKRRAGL

On to “full-length Polydom E2567A mutant, A2AVA0 18-3567”, for which the Transwell migration of human dermal LECs toward Polydom/E2567A (1 μg/ml) in the lower chamber, reduction compared with control Polydom in test [1] is 80%.

B1: recombinant Tie1 extracellular domain, Fc fusion protein (Fc fusion, UniProt P35590 22-759, looked up)
chain: AVDLTLLANLRLTDPQRFFLTCVSGEAGAGRGSDAWGPPLLLEKDDRIVRTPPGPPLRLARNGSHQVTLRGFSKPSDLVGVFSCVGGAGARRTRVIYVHNSPGAHLLPDKVTHTVNKGDTAVLSARVHKEKQTDVIWKSNGSYFYTLDWHEAQDGRFLLQLPNVQPPSSGIYSATYLEASPLGSAFFRLIVRGCGAGRWGPGCTKECPGCLHGGVCHDHDGECVCPPGFTGTRCEQACREGRFGQSCQEQCPGISGCRGLTFCLPDPYGCSCGSGWRGSQCQEACAPGHFGADCRLQCQCQNGGTCDRFSGCVCPSGWHGVHCEKSDRIPQILNMASELEFNLETMPRINCAAAGNPFPVRGSIELRKPDGTVLLSTKAIVEPEKTTAEFEVPRLVLADSGFWECRVSTSGGQDSRRFKVNVKVPPVPLAAPRLLTKQSRQLVVSPLVSFSGDGPISTVRLHYRPQDSTMDWSTIVVDPSENVTLMNLRPKTGYSVRVQLSRPGEGGEGAWGPPTLMTTDCPEPLLQPWLEGWHVEGTDRLRVSWSLPLVPGPLVGDGFLLRLWDGTRGQERRENVSSPQARTALLTGLTPGTHYQLDVQLYHCTLLGPASPPAHVLLPPSGPPAPRHLHAQALSDSEIQLTWKHPEALPGPISKYVVEVQVAGGAGDPLWIDVDRPEETSTIIRGLNASTRYLFRMRASIQGLGDWSNTVEESTLGNGLQAEGPVQESRAAEEGLDQ
notes: Tie1, extracellular domain, expressed as Fc fusion protein; The Fc tag was detected with an anti-human IgG antibody; also called Tie1 with an Fc tag; source: bought: R&D Systems
As to B1, in test [2], the Kd is 43 ± 4 nM.

B2: SVEP1 (protein)
chain: DAIHCSDPQPIENGFVEGADYRYGAMIIYSCFPGFQVLGHAMQTCEESGWSSSSPTCVPID
B2 yielded a Kd with Tie2 greater than 500 nM.
